Reference: patent US10471162B2, “Collagen targeted imaging probes” (priority 2014, dated 2019)
Where a SMILES comes first, the peptide text is derived from it. Bridges are numbered along the chain shown (N, C = ends). The star is where a group is joined. NODAGA = O=C(O)CN1CCN(CC(=O)O)CCN(C(CCC(=O)*)C(=O)O)CC1

Assays:
in vivo = format: in vivo, mouse; details: male, C57/BL6, mouse, in vivo, iv, total radioactivity; for tissue uptake at 2.5 h / tissue uptake at 2 h: Biodistribution % ID/g
Experimental: (§1) Pulmonary fibrosis was induced in 7-8-week-old male C57/BL6 mice by transtracheal administration of bleomycin (BM; 2.5 U/kg) in 50 μL of PBS under direct vision using a small cervical incision. Sham animals received only PBS. Animals were placed in a small-animal PET/SPECT/CT scanner (Triumph; TriFoil Imaging), equipped with inhalation anesthesia and heating pad. Each animal was anesthetized with isoflurane (4% for induction, 2-2.5% for maintenance in medical air) and body temperature was kept at 37-38° C. using a heating pad. The femoral vein was cannulated for intravenous delivery of the PET agent. Each mouse was injected with approximately 0.1 mL and 20-50 μCi of ^64Cu-CBP(n), 0.1 mL and 20-50 μCi of ^68Ga-CBP(n) and 0.1 mL and 10-20 μCi of Al^18F-CBP(n) in a 18 mM solution of sucrose in water, followed by saline flush. […] The lungs, blood, urine, heart, liver, left rectus femoris muscle, spleen, small intestine, kidneys, left femur bone were collected from all animals. The tissues were weighed, and radioactivity in each tissue was measured on a gamma counter (CobraII Auto gamma; Packard). The radioactivity in the lung was reported as percent injected dose per gram corrected with the average sham weight, which was calculated by dividing the counts of ^64Cu per average sham tissue weight in gram by the total of counts of the injected dose. The radioactivity in every other tissue was reported as percent injected dose per gram (% ID/g), which was calculated by dividing the counts of ^64Cu per gram of tissue by the total of counts of the injected dose. A p-value of less than 0.05 was considered significant. Uncertainties are expressed as the standard error of the mean.

[1] = test system: pulmonary fibrosis, C57/BL6 mice (bleomycin or sham); assay: in vivo; format: in vivo, mouse; details: for Biodistribution % ID/g, blood / Biodistribution % ID/g, heart / Biodistribution % ID/g, liver / Biodistribution % ID/g, spleen / Biodistribution % ID/g, bone / Biodistribution % ID/g, kidney / Biodistribution % ID/g, lungs / Biodistribution % ID/g, sm. intestine: male, C57/BL6, mouse; for Biodistribution % ID/g, blood / Biodistribution % ID/g, heart / Biodistribution % ID/g, liver / Biodistribution % ID/g, spleen / Biodistribution % ID/g, bone / Biodistribution % ID/g, kidney / Biodistribution % ID/g, lungs / Biodistribution % ID/g, sm. intestine / route of excretion: iv; for lung uptake in BM-treated (fibrotic) mice compared to sham, in words: biodistribution 2.5 hours after injection
Experimental: as §1

rat tail collagen = molecular target: T1, rat tail collagen (Rattus norvegicus, UniProt P02454+P02466); assay: rat tail collagen-binding assay; details: 2 hours at room temperature, single binding site model
T1 construct: from tissue; host or cells: rat tail
Experimental: Binding isotherms were obtained by following a method previously reported. (Caravan, P., Das, B., Dumas, S., Epstein, F. H., Helm, P. A., Jacques, V., Koerner, S., Kolodziej, A., Shen, L., Sun, W., Zhang, Z., Angewandte Chemie, 2007, 119(43), 8319-8321.) Briefly, increasing concentrations of a mixture of ^63/65Cu-CBP(n) and ^64Cu-CBP(n) were added to collagen containing wells. […] An aliquot of each solution was reserved as a measure of the total concentration. The plates were incubated on a shaker table (300 rpm) for 2 hours at room temperature to allow the compound to bind. After 2 hours, the supernatant from each well (with or without collagen) was assayed for ^64Cu content. The relative amount of free, unbound compound in the sample supernatants and the amount of compound in the reserved (total) sample were determined by using a gamma counter. The bound concentration is [Total]−[Free]. The concentration of ^63/65Cu-CBP(n) was less than the collagen concentration and the data were fit to a model of a single binding site with dissociation constant, Kd.

T1 sequence (P02454 152-1207 limits assumed): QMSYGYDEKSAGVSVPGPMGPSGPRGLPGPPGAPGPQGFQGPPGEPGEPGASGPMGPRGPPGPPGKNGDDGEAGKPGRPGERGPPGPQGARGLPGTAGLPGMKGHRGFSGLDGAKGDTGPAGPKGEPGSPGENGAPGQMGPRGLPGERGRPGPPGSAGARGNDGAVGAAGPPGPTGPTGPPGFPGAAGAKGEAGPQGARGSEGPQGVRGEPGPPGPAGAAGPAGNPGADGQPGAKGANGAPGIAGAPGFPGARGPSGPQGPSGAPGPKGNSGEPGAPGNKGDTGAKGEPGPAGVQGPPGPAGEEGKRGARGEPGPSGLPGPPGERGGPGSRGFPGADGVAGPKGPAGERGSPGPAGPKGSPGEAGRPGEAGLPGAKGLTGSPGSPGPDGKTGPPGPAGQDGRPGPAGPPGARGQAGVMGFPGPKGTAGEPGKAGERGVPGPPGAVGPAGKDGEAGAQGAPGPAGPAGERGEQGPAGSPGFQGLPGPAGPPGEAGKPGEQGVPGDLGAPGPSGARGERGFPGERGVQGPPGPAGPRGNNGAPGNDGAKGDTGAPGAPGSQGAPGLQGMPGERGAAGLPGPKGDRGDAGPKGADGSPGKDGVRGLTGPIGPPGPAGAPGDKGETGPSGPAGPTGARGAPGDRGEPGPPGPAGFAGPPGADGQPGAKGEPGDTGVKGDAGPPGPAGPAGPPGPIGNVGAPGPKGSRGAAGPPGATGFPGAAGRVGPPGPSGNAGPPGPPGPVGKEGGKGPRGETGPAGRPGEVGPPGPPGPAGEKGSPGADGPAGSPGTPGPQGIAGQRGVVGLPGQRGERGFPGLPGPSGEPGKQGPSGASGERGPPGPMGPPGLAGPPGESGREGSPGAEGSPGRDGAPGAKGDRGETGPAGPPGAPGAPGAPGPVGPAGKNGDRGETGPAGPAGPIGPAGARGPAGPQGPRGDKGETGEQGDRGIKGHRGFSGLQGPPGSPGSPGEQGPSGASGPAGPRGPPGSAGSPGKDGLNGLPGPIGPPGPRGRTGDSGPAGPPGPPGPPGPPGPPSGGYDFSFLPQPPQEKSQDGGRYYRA
T1 sequence (P02466 86-1125 limits assumed): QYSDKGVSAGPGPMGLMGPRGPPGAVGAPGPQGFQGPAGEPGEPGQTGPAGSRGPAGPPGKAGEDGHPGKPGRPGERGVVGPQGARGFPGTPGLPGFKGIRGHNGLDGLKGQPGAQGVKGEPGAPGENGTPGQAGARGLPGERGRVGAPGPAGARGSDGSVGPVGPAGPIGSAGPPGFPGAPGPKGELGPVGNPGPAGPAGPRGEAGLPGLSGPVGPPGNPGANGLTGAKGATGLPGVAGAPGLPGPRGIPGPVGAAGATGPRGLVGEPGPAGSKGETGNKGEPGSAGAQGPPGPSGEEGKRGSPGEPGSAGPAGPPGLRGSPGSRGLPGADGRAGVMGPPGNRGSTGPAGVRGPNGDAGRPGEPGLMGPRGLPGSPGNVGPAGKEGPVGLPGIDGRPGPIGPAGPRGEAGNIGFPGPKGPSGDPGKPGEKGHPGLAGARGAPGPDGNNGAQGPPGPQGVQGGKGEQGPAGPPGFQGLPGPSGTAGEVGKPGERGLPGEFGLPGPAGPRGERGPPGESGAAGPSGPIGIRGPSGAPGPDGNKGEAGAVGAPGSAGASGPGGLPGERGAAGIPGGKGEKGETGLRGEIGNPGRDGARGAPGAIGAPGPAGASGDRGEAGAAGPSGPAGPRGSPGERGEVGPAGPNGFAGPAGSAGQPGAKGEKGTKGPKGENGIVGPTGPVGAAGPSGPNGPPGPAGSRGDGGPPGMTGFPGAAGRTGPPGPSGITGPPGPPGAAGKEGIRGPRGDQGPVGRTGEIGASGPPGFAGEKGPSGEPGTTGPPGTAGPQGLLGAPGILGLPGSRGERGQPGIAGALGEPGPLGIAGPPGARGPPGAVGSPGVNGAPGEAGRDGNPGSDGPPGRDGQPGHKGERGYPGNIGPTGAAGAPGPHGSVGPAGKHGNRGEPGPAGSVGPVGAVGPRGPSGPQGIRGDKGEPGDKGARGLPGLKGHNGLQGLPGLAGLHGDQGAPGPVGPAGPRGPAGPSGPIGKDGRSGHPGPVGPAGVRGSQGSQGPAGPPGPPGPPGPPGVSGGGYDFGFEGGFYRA

| Kd (rat tail collagen) [µM] | Compound | tissue uptake at 2.5 h (in vivo; liver) [%ID/g] | Biodistribution % ID/g, liver ([1]; in vivo, 2.5 h) [% ID/g] | tissue uptake at 2 h (in vivo; blood) [%ID/g] | tissue uptake at 2 h (in vivo; heart) [%ID/g] | tissue uptake at 2 h (in vivo; kidney) [%ID/g] | tissue uptake at 2 h (in vivo; liver) [%ID/g] | tissue uptake at 2 h (in vivo; lungs) [%ID/g] | tissue uptake at 2 h (in vivo; sm. intestine) [%ID/g] | tissue uptake at 2 h (in vivo; spleen) [%ID/g] | lung uptake in BM-treated (fibrotic) mice compared to sham, in words [1] | Biodistribution % ID/g, blood ([1]; in vivo, 2 h) [% ID/g] | Biodistribution % ID/g, heart ([1]; in vivo, 2 h) [% ID/g] | Biodistribution % ID/g, kidney ([1]; in vivo, 2 h) [% ID/g] | Biodistribution % ID/g, liver ([1]; in vivo, 2 h) [% ID/g] | Biodistribution % ID/g, lungs ([1]; in vivo, 2 h) [% ID/g] | Biodistribution % ID/g, sm. intestine ([1]; in vivo, 2 h) [% ID/g] | Biodistribution % ID/g, spleen ([1]; in vivo, 2 h) [% ID/g] | route of excretion ([1]; mouse, in vivo) | also measured |
| --- | --- | --- | --- | --- | --- | --- | --- | --- | --- | --- | --- | --- | --- | --- | --- | --- | --- | --- | --- | --- |
|  | CC(C)C[C@H](NC(=O)[C@@H]1CSSC[C@@H](NC(=O)[C@H](Cc2c[nH]cn2)NC(=O)[C@H](Cc2c[nH]c3ccccc23)NC(=O)[C@H](CCCCNC(=O)CNC(=O)CCC(C(=O)O)N2CCN(CC(=O)O)CCN(CC(=O)O)CC2)NC(=O)CNC(=O)CCC(C(=O)O)N2CCN(CC(=O)O)CCN(CC(=O)O)CC2)C(=O)N[C@@H]([C@@H](C)O)C(=O)N[C@@H]([C@@H](C)O)C(=O)N[C@@H](CCCCNC(=O)CCC(C(=O)O)N2CCN(CC(=O)O)CCN(CC(=O)O)CC2)C(=O)N[C@@H](Cc2ccccc2)C(=O)N2CCC[C@H]2C(=O)N[C@@H](Cc2c[nH]cn2)C(=O)N[C@@H](Cc2c[nH]cn2)C(=O)N[C@@H](Cc2ccc(O)cc2)C(=O)N1)C(=O)N[C@@H](Cc1ccc(O)cc1)C(=O)N[C@@H](Cc1ccc(-c2ccccc2)cc1)C(N)=O (stereo partly drawn) (64Cu complex, metal not drawn) [CBP11] | 1.3 ± 0.086 | 0.953 ± 0.069 |  |  |  |  |  |  |  |  |  |  |  |  |  |  |  |  | tissue uptake at 2.5 h (in vivo; blood): 0.21 ± 0.017 %ID/g; tissue uptake at 2.5 h (in vivo; heart): 0.143 ± 0.008 %ID/g; tissue uptake at 2.5 h (in vivo; spleen): 0.408 ± 0.015 %ID/g; Biodistribution % ID/g, blood ([1]; in vivo, 2.5 h): 0.373 ± 0.180 % ID/g; Biodistribution % ID/g, heart ([1]; in vivo, 2.5 h): 0.170 ± 0.044 % ID/g; Biodistribution % ID/g, spleen ([1]; in vivo, 2.5 h): 0.475 ± 0.063 % ID/g |
| 7.2 ± 5.2 | C[C@@H](O)[C@@H]1NC(=O)[C@@H](NC(=O)[C@H](Cc2c[nH]cn2)NC(=O)[C@H](Cc2c[nH]c3ccccc23)NC(=O)[C@H](CCC(N)=O)NC(=O)CNC(=O)CCC(C(=O)O)N2CCN(CC(=O)O)CCN(CC(=O)O)CC2)CSSC[C@@H](C(=O)N[C@@H](Cc2ccccc2)C(=O)N[C@@H](Cc2ccc(O)cc2)C(=O)NCC(N)=O)NC(=O)[C@H](Cc2ccc(O)cc2)NC(=O)[C@H](Cc2c[nH]cn2)NC(=O)[C@H](Cc2c[nH]cn2)NC(=O)[C@@H]2CCCN2C(=O)[C@H](Cc2ccccc2)NC(=O)[C@H](CCCNC(=N)N)NC(=O)[C@H]([C@@H](C)O)NC1=O (stereo partly drawn) [CBP5] ({NODAGA}-GQWHCTTRFPHHYCFYG-NH2; disulfide 5-14) |  |  | 0.11 ± 0.018 | 0.075 ± 0.009 | 30.5 ± 2.01 | 2.63 ± 0.146 | 0.318 ± 0.135 | 0.513 ± 0.1 | 0.815 ± 0.42 | greater lung uptake in BM-treated mice | 0.121 ± 0.028 | 0.094 ± 0.013 | 18.368 ± 1.909 | 3.836 ± 0.770 | 0.623 ± 0.320 | 0.431 ± 0.089 | 1.588 ± 0.546 | excreted mainly through the kidneys | tissue uptake at 2 h (in vivo; bone): 0.703 ± 0.343 %ID/g; tissue uptake dose at 2 h (in vivo; Biodistribution % ID/lung): 0.032 ± 0.016 %ID; Biodistribution % ID/g, bone ([1]; in vivo, 2 h): 0.490 ± 0.237 % ID/g; Biodistribution % ID/lung ([1]; mouse, in vivo): 0.016 ± 0.007 % ID/lung |
| 14.6 ± 5.8 | CC(C)C[C@H](NC(=O)[C@@H]1CSSC[C@H](NC(=O)[C@H](Cc2c[nH]cn2)NC(=O)[C@H](Cc2c[nH]c3ccccc23)NC(=O)[C@H](CCC(N)=O)NC(=O)CNC(=O)CCC(C(=O)O)N2CCN(CC(=O)O)CCN(CC(=O)O)CC2)C(=O)N[C@@H](Cc2ccc(O)cc2)C(=O)N[C@@H]([C@@H](C)O)C(=O)N[C@@H](CC(C)C)C(=O)N[C@@H](Cc2ccccc2)C(=O)N2CCC[C@H]2C(=O)N[C@@H](Cc2c[nH]cn2)C(=O)N[C@@H](Cc2c[nH]cn2)C(=O)N[C@@H](Cc2ccc(O)cc2)C(=O)N1)C(=O)N[C@@H](Cc1ccc(O)cc1)C(=O)NCC(N)=O (stereo partly drawn) [CBP6] ({NODAGA}-GQWHCYTLFPHHYCLYG-NH2; disulfide 5-14; C-terminus assumed) |  |  | 0.147 ± 0.01 | 0.121 ± 0.017 | 13.4 ± 1.23 | 2.64 ± 0.144 | 0.013 ± 0.002 | 0.747 ± 0.168 | 0.669 ± 0.03 | greater lung uptake in BM-treated mice | 0.279 ± 0.096 | 0.156 ± 0.016 | 14.008 ± 0.727 | 2.503 ± 0.218 | 0.019 ± 0.003 | 0.938 ± 0.164 | 0.775 ± 0.084 | excreted mainly through the kidneys |  |
|  | CC(C)C[C@H](NC(=O)[C@@H]1CSSC[C@H](NC(=O)[C@H](Cc2c[nH]cn2)NC(=O)[C@H](Cc2c[nH]c3ccccc23)NC(=O)[C@H](CCCCNC(=O)CNC(=O)CN2CCN(CC(=O)O)CCN(CC(=O)O)CC2)NC(=O)CNC(=O)CN2CCN(CC(=O)O)CCN(CC(=O)O)CC2)C(=O)N[C@@H]([C@@H](C)O)C(=O)N[C@@H]([C@@H](C)O)C(=O)N[C@@H](CCCCNC(=O)CN2CCN(CC(=O)O)CCN(CC(=O)O)CC2)C(=O)N[C@@H](Cc2ccccc2)C(=O)N2CCC[C@H]2C(=O)N[C@@H](Cc2c[nH]cn2)C(=O)N[C@@H](Cc2c[nH]cn2)C(=O)N[C@@H](Cc2ccc(O)cc2)C(=O)N1)C(=O)N[C@@H](Cc1ccc(O)cc1)C(=O)N[C@@H](Cc1ccc(-c2ccccc2)cc1)C(N)=O [CBP10, Al^18F-NOTA-cPep(7)] | 14 ± 1 | 27.231 ± 0.995 |  |  |  |  |  |  |  |  |  |  |  |  |  |  |  |  | tissue uptake at 2.5 h (in vivo; bone): 2.53 ± 0.735 %ID/g; tissue uptake at 2.5 h (in vivo; kidney): 26.2 ± 4.85 %ID/g; tissue uptake at 2.5 h (in vivo; sm. intestine): 1.12 ± 0.48 %ID/g; Biodistribution % ID/g, bone ([1]; in vivo, 2.5 h): 2.963 ± 0.716 % ID/g; Biodistribution % ID/g, kidney ([1]; in vivo, 2.5 h): 44.170 ± 16.811 % ID/g; Biodistribution % ID/g, sm. intestine ([1]; in vivo, 2.5 h): 1.492 ± 0.542 % ID/g |
